From PMC6454211 (Biochemistry, 2018)

Biological target: Calmodulin (human full-length CaM, Ca2+-loaded) (human, UniProt P0DP23 1-149)
Experiment: cross-linking

B1: p85α cSH2 domain V663K/V667N/L687F/L691V/L696N (residues 614-724) (domain or fragment)
chain: EDLPHHDEKTWNVGSSNRNKAENLLRGKRDGTFLVRESSKQGCYACSVVKDGENKHCVINKTATGYGFAEPYNFYSSVKELVNHYQHTSLVQHNDSLNVTLAYPVYAQQRR
binding result: binds
